Data on three molecules can be found in patent publication US20140120095A1 (Boehringer Ingelheim, published 2014).

T1: cynomolgus DLL4 expressed on CHO cells (cynomolgus, UniProt Q9NR61 27-685 (human entry))
T1 construct: also called cDLL4; CHO-cDLL4
T1 chain: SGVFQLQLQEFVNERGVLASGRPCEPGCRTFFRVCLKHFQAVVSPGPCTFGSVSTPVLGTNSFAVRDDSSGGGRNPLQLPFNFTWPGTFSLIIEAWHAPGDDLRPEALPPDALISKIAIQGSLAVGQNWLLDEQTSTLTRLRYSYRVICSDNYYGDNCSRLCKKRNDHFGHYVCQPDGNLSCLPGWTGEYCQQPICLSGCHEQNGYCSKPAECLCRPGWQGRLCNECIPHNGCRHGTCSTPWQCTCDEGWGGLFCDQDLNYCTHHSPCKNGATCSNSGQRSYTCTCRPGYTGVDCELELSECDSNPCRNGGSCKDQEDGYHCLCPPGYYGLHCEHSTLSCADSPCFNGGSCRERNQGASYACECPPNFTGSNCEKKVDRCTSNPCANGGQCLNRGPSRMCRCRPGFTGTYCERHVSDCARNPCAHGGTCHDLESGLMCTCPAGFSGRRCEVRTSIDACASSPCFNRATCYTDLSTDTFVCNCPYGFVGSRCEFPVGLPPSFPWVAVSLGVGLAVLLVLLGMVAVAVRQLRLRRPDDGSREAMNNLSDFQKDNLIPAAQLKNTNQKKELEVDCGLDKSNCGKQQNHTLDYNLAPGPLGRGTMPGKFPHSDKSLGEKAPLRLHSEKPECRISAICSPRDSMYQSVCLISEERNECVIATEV

B1: DLLBII133A09 (VHH, not shown: small tags and cut ends)
VHH: EVQLVESGGGLVQPGGSLRLSCAASGFTFGSYDMSWVRRSPGKGPEWVSAINSGGGSTYYADYVKGRFTISRDNAKNTLYLQMNSLKPEDTAVYYCAADRYIWARQGEYWGAYAYDYWGQGTQVTVSS
B2: DLLBII136C07 (VHH, not shown: small tags and cut ends)
VHH: B1 VHH with A50S, A114E
B3: DLLBII133G05 (VHH, not shown: small tags and cut ends)
VHH: B1 VHH with A61T

Where a chain is given by its changes, count along the chain named.

T5 sequence (Q9JI71 27-686): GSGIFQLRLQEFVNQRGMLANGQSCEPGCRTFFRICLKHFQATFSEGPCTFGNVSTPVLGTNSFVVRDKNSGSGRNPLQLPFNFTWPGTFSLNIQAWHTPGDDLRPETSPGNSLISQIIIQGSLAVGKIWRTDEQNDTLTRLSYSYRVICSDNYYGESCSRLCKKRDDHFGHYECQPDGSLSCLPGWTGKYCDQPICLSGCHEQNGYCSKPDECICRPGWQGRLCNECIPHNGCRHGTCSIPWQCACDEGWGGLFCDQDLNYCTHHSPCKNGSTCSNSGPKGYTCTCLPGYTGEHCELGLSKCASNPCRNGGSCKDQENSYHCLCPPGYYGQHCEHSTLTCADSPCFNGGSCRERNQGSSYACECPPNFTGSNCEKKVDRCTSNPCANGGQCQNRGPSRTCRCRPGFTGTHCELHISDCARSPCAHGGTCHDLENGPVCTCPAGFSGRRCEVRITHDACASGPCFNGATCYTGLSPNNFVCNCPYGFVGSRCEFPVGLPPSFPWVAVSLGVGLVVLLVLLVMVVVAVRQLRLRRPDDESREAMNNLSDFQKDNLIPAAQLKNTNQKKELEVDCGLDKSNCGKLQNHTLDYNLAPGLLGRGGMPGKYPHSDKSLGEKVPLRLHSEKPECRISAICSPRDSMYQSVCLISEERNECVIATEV
T3 sequence (Q9JI71 27-532): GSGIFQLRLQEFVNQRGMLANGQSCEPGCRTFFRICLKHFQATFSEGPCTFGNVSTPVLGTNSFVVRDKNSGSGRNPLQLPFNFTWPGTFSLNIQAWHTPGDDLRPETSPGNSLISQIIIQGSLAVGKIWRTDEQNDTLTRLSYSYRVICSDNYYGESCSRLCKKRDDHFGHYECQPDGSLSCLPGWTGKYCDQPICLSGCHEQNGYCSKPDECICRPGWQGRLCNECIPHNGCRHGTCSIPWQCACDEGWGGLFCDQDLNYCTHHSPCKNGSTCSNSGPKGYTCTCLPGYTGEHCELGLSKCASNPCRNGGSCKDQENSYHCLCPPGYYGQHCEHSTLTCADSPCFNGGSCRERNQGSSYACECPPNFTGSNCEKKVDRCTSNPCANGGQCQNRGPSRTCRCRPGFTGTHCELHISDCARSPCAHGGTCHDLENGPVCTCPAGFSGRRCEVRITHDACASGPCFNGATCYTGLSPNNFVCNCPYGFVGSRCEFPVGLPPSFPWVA

The target of the first experiment is T2, recombinant human DLL4 (C-terminally His-tagged extracellular domain, R&D Systems) (human, UniProt Q9NR61 25-522, biotinylated in the competition ELISA).
T2 construct: also called rhDLL4; hDLL4
Description: SPR (Biacore), rhDLL4. In a few lines: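 SPR with DLL4 on the chip; VHH or Fab injected at 10-300 nM for 2 minutes, 20 min dissociation, in HBS-N pH7.4, regenerating with glycine pH1.5 and HCl. KD derived from association and dissociation rate constants by 1:1 Langmuir fit where the curves allowed.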
In general terms: Surface plasmon resonance follows binding to a sensor surface in real time, without labels.
Broadly, the Kd is the constant that tells how readily two partners part at equilibrium. The koff is a measure of how fast the partners let go of each other. The kon is a measure of how fast the partners come together. With B1, the Kd was found to be 2.1 nM, the koff turned out to be 0.0009 s⁻¹ and the kon came to 440000 M⁻¹ s⁻¹.
For the molecule B2, the Kd is 0.6 nM, the koff amounted to 0.00039 s⁻¹ and the kon was 620000 M⁻¹ s⁻¹.
Take B3: the Kd amounted to 0.8 nM, the koff was determined as 0.00047 s⁻¹ and the kon was determined as 590000 M⁻¹ s⁻¹.

Another experiment addresses T3, recombinant mouse DLL4 (C-terminally His-tagged extracellular domain, R&D Systems) (mouse, UniProt Q9JI71 27-532).
T3 construct: extracellular domain; also called rmDLL4; mDLL4
Description: SPR (Biacore), rmDLL4.
B1: the Kd is 7.8 nM, the koff came out at 0.0027 s⁻¹ and the kon worked out at 350000 M⁻¹ s⁻¹.
For the molecule B2, the Kd was found to be 2.6 nM, the koff worked out at 0.0013 s⁻¹ and the kon was found to be 500000 M⁻¹ s⁻¹.
Take B3: the Kd was 3.4 nM, the koff was determined as 0.0016 s⁻¹ and the kon is 470000 M⁻¹ s⁻¹.

The target of another experiment is T4, human DLL4 expressed on cells (CHO-hDLL4; HEK293-hDLL4) (human, UniProt Q9NR61 27-685). Description: cell-based or functional assay.
Turning to B1, the “IC50, DLL4-mediated reporter assay” value came out at 87 nM.
On to B2, for which the “IC50, DLL4-mediated reporter assay” value was determined as 226 nM.
As for B3, the “IC50, DLL4-mediated reporter assay” value came out at 104 nM.

A further experiment has as its target T1, cynomolgus DLL4 expressed on CHO cells. Description: FACS on CHO-cDLL4 cells.
One may read the EC50 as the concentration needed to bring the measured effect to its halfway point. A high value points to a need for much substance. Take B1: a half-maximal response (EC50) required 2.3 nM.
B2: it took 3.5 nM to reach a half-maximal effect (EC50). Against the preceding molecule, the EC50 is about 1.5-fold higher.
B3 gave an EC50 of 2.7 nM.

In the next experiment the target is T4, human DLL4 expressed on cells …. Description: FACS on CHO-hDLL4 cells.
Molecule B1 displayed an EC50 of 7.2 nM. That is a single-digit nanomolar value.
Molecule B2 returned an EC50 of 10.9 nM. Against the preceding molecule, the EC50 is about 1.5-fold higher.
B3 registered an EC50 of 8.5 nM. This EC50 and that of the molecule before are within 1.5-fold of each other.

Another experiment addresses T5, mouse DLL4 expressed on CHO cells (mouse, UniProt Q9JI71 27-686).
T5 construct: whole, on cells; also called mDLL4; CHO-mDLL4
Put plainly: FACS on CHO-mDLL4 cells.
With B1, the response was half-maximal at 1.7 nM (EC50). In other words, the single-digit nanomolar range.
Same read-out and setting: next, B2: 8.3 nM.
Consider B3, for which a half-maximal response (EC50) required 2.8 nM.

A further experiment addresses T2, recombinant human DLL4 (C-terminally …). Description: SPR (Biacore); summary table.
B1: the equilibrium dissociation constant (Kd) came out at 2.1 nM.
On the same count and under the same terms, under B2 stands 0.6 nM; under B3, 0.8 nM.

For the next experiment, the target named is T3, recombinant mouse DLL4 (C-terminally …). Description: SPR (Biacore); summary table.
Consider B1, for which the Kd was determined as 7.8 nM.
For the molecule B2, the Kd came out at 2.6 nM.
Consider B3, for which the Kd is 3.4 nM.

Another experiment addresses T4, human DLL4 expressed on cells …. Description: competition FMAT CHO-hDLL4; summary table.
For orientation: IC50 means the point on the concentration scale where inhibition reaches its midpoint. In the case of B1, the IC50 was 6.6 nM.
B2 gave an IC50 of 8 nM.
B3 registered an IC50 of 5.9 nM.

The next experiment deals with T5, mouse DLL4 expressed on CHO cells. Description: competition FMAT CHO-mDLL4; summary table.
Molecule B1 showed an IC50 of 18.6 nM.
For the molecule B2, the half-inhibitory concentration (IC50) was found to be 31.2 nM.
As to B3, the IC50 was 12 nM.

In another experiment the target is T1, cynomolgus DLL4 expressed on CHO cells. Put plainly: FACS; summary table, column taken as cDLL4. (A flow cytometer gives signals particle by particle.)
On to B1, for which the midpoint of the response, the EC50, lay at 2.3 nM.
Turning to B2, the EC50 stood at 3.5 nM.
On the same count and under the same terms, under B3 stands 2.7 nM.

Another experiment deals with T4, human DLL4 expressed on cells …. Put plainly: FACS; summary table, column taken as hDLL4.
Molecule B1 gave an EC50 of 7.2 nM.
The molecule B2 gave an EC50 of 10.9 nM.
On the same count and under the same terms, under B3 stands 8.5 nM.

For a further experiment, the target named is T5, mouse DLL4 expressed on CHO cells. Description: FACS; summary table, column taken as mDLL4.
As to B1, a half-maximal response (EC50) required 1.7 nM.
For the molecule B2, the EC50 worked out at 8.3 nM.
The molecule B3 returned an EC50 of 2.8 nM.

A further experiment deals with T2, recombinant human DLL4 (C-terminally …). Description: competition ELISA hDLL4/hNotch1-Fc; summary table. In general terms: ELISA stands for enzyme-linked immunosorbent assay.
Consider B1, for which the IC50 was 1.5 nM.
Regarding B2, the concentration for half-maximal inhibition (IC50) is 1.4 nM.
For the molecule B3, the half-maximal inhibitory concentration (IC50) came to 2 nM.

The target in another experiment is T4, human DLL4 expressed on cells …. Put plainly: competition FMAT, labelled hNotch1-Fc on CHO-hDLL4 cells.
Regarding B1, the IC50 is 6.6 nM.
As for B2, the IC50 was determined as 8 nM.
On the same count and under the same terms, next, B3: 5.9 nM.

In a further experiment the target is T5, mouse DLL4 expressed on CHO cells. Put plainly: competition FMAT, labelled hNotch1-Fc on CHO-mDLL4 cells.
B1 displayed an IC50 of 18.6 nM.
Still for that read-out and setting: next, B2: 31.2 nM; B3: 12 nM.

In another experiment the target is T2, recombinant human DLL4 (C-terminally …). Description: competition ELISA, biotinylated hDLL4 to coated hNotch1-Fc.
Regarding B1, the IC50 stood at 1.5 nM.
On the same count and under the same terms, under B2 stands 1.4 nM.
For the molecule B3, the IC50 was determined as 2 nM.
